According to US20110136738A1, “Alternatively Transcribed Genes Associated with Schizophrenia” (University College Dublin, National University of Ireland, …, priority 2008, published 2011):
“Also recorded” adds a separate entry of the source.

Test system: isolation reared animals
Assay: Prepulse inhibition of startle in isolation reared animals (ICV midkine)
Assay type: in vivo, male Wistar rats
Settings: isolation reared rats, four daily ICV injections of midkine 2 μg/day, compared to vehicle-treated animals
Protocol: Isolation-reared animals (isolated animals) were housed singly in non-soft bottom cages (22.5 cm×34.5 cm×17 cm), from time of weaning (postnatal day 25, P25) until completion of behavioral testing. A standard 12 hour light/dark cycle was observed and food and water was provided ad libitum. Noise and visual stimuli were kept to an absolute minimum as described previously by Geyer et al., 1993. Socially reared animals (social animals) were housed in groups of 4 from time of weaning until surgical implantation of a guide cannula on P80, there after they were housed singly. […] The startle apparatus consisted of a sound attenuating chamber (54.6×50.8×30.5 cm), a startle platform which measured the startle response, and an audio stimulator, controlled by the startle reflex software (MED Associates Inc.). […] The resulting movement of the rats was measured during 100 ms after startle stimulus onset, and then rectified, amplified and analyzed by computer and the maximal response and average response over the 100 ms period determined. Baseline startle amplitude was determined as the mean response of all startle trials. The percent prepulse inhibition was determined according to the following formula: 100-([startle amplitude at prepulse trial/startle amplitude at startle trial]×100%). The effect on baseline startle amplitude was analyzed by a one-way analysis of variance (ANOVA). […]

B1: midkine (protein, UniProt P21741 21-143, looked up)
Midkine: VAKKKDKVKKGGPGSECAEWAWGPCTPSSKDCGVGFREGTCGAQTQRIRCRVPCNWKKEFGADCKYKFENWGACDGGTGTKVRQGTLKKARYNAQCQETIRVTKPCTPKTKAKAKAKKGKGKD
  prepulse inhibition (PPI) of startle: reverses the deficit observed in prepulse inhibition of startle; also recorded: reversed PPI behavior back to normal
Listed as Midkine
  prepulse inhibition (PPI) of startle: reversed the deficit observed in prepulse inhibition of startle; also recorded: reversed PPI behavior back to normal
